Numbering of substitutions follows the chain as printed.

Results on 45 molecules are retold here after US20210380703A1.

B1: 370_H02 (antibody, V domains shown)
VH: EVQLLESGGGLVQPGGSLRLSCAASGFTFDSYSMNWVRQAPGKGLEWVSGINYNSGYTSYADSVKGRFTISRDNSKNTLYLQMNSLRAEDTAVYYCARGANWHDTHLDYWGQGTLVTVSS
VL: DIQMTQSPSSLSASVGDRVTITCRASQSILTYLNWYQQKPGKAPKLLIYAATSRASGVPSRFSGSGSGTDFTLTISSLQPEDFATYYCQQSYESPLTFGGGTKVEIK
B2: 371_C12 (antibody, V domains shown)
VH: B1 VH with D30S, S49A, T58K
VL: B1 VL with L30V, T31S, L33V, E93D, S94T
B3: 373_A03 (antibody, V domains shown)
VH: B1 VH with D30S, S31D, S49A, G50N, S55G, S59G, H106A
VL: B1 VL with T31S, L47V, E93D, S94N
B4: 371_B09 (antibody, V domains shown)
VH: B1 VH with D30S, S49A, S59G
VL: B1 VL with T31S, L33V, L47V, A51T, R54L, E93D, S94T
B5: 371_D02 (antibody, V domains shown)
VH: B1 VH with S31D, S49A, S55G, T58K, H106A
VL: B1 VL with L30V, E93D
B6: 371_B04 (antibody, V domains shown)
VH: B1 VH with D30S, S55G, T58K, H106A
VL: B1 VL with T31S, L47V, A51V, A55H, E93D
B7: 373_C10 (antibody, V domains shown)
VH: B1 VH with D30S, S49A, S55G, H106A
VL: B1 VL with L33V, E93D, S94N
B8: 372_G12 (antibody, V domains shown)
VH: B1 VH with S49A, S55G, S59G
VL: B1 VL with L47V, A55H, E93D
B9: 373_D03 (antibody, V domains shown)
VH: B1 VH with D30S, S55G, H106A
VL: B1 VL with L30V, T31S, R54L, E93D, S94T
B10: 371_H10 (antibody, V domains shown)
VH: B1 VH with D30S, S49A, T58K
VL: B1 VL with L30S, A55H, S94N
B11: 371_D04 (antibody, V domains shown)
VH: B1 VH with S31D, S49A, S55G, S59G
VL: B1 VL with L30V, T31S, L33V, R54L, S94N
B12: 371_G09 (antibody, V domains shown)
VH: B1 VH with D30S, S49A, G50N, S55G, S59G, H106A
VL: B1 VL with T31S, L47V, Y92D, E93S, S94T
B13: 372_D03 (antibody, V domains shown)
VH: B1 VH with D30S, S49A, T58K, H106A
VL: B1 VL with T31S, L33V, L47V, A51V, A55H, E93D
B14: 371_F11 (antibody, V domains shown)
VH: B1 VH with D30S, S55G, H106A
VL: B1 VL with L30I, T31S, L33V, A51V, E93D, S94L
B15: 371_E10 (antibody, V domains shown)
VH: B1 VH with S49A, S55G, H106A
VL: B1 VL with L30S, A51V, E93N
B16: 371_H05 (antibody, V domains shown)
VH: B1 VH with D30S, S33G, T58K, H106A
VL: B1 VL with L30I, T31S, R54L, E93S, S94L
B17: 372_B02 (antibody, V domains shown)
VH: B1 VH with D30S, H106A
VL: B1 VL with T31S, L33V, A51V, R54L, S94T
B18: 373_A12 (antibody, V domains shown)
VH: B1 VH with D30S, G50S, S55G, H106A
VL: B1 VL with L47V, E93D, S94T
B19: 371_E07 (antibody, V domains shown)
VH: B1 VH with S49A, S55G, H106A
VL: B1 VL with L30I, T31S, R54L
B20: 367_H01 (antibody, V domains shown)
VH: B1 VH with S33G, S55G, T58K, G99A, H106A
VL: B1 VL with L47V, E93D, S94N
B21: 370_H07 (antibody, V domains shown)
VH: B1 VH with D30S, S49A, S55G, T58K, H106A
VL: B1 VL with T31S, R54L, Y92D, E93S
B22: 373_A09 (antibody, V domains shown)
VH: B1 VH with S49A, S55G, H106A
VL: B1 VL with R54L, E93D, S94T
B23: 371_E06 (antibody, V domains shown)
VH: B1 VH with D30S, S55G, H106A
VL: B1 VL with L30S, A51V, R54L, A55H
B24: 373_B05 (antibody, V domains shown)
VH: B1 VH with D30S, S31D, G50N, S55G, T58K, H106A
VL: B1 VL with L30V, L47V, E93S, S94N
B25: 372_E01 (antibody, V domains shown)
VH: B1 VH with S31D, S55G, T58K, S59G, H106A
VL: B1 VL with L30V, T31S, L47V, A55H, E93D
B26: 367_F06 (antibody, V domains shown)
VH: B1 VH with D30S, S33G, G50S, G99A, H106A
VL: B1 VL with L30S, T31S, L33V, A51V, E93D
B27: 371_H08 (antibody, V domains shown)
VH: B1 VH with D30S, S33G, S49A, G50S, S55G, T58K, S59G
VL: B1 VL with L30I, T31S, L33V, L47V, A51V, E93D, S94T
B28: 373_A01 (antibody, V domains shown)
VH: B1 VH with D30S, S33G, G50N, S55G, S59G
VL: B1 VL with L30V, L47V, A51T, E93N, S94L
B29: 371_G04 (antibody, V domains shown)
VH: B1 VH with S55G, T58K, H106A
VL: B1 VL with T31S, R54L, A55H
B30: 373_C07 (antibody, V domains shown)
VH: B1 VH with S49A
VL: B1 VL with L47V, S94T
B31: 371_B03 (antibody, V domains shown)
VH: B1 VH with D30S, S33G, N35H, S49A, G50S, S55G
VL: B1 VL with T31S, L33V, A51T, E93D, S94N
B32: 371_C05 (antibody, V domains shown)
VH: B1 VH with D30S, S31D, S33G, N35H, S49A, G50N, S55G, S59G, H106A
VL: B1 VL with T31S, E93D
B33: 367_D11 (antibody, V domains shown)
VH: B1 VH with S33G, N35H, G50N, S55G, T58K, G99A, H106A
VL: B1 VL with L30I, T31S, E93D
B34: 371_G02 (antibody, V domains shown)
VH: B1 VH with S33G, S49A, G50S, S55G
VL: B1 VL with T31S, E93D, S94L
B35: 371_H04 (antibody, V domains shown)
VH: B1 VH with D30S, S33G, G50N, S55G, S59G, H106A
VL: B1 VL with E93N
B36: 373_B07 (antibody, V domains shown)
VH: B1 VH with S55G, H106A
VL: B1 VL with L33V, L47V, S94L
B37: 373_A11 (antibody, V domains shown)
VH: B1 VH with D30S, S31N, S33G, S49A, G50N, S55G, S59G, H106A
VL: B1 VL with E93D, S94L
B38: 371_F10 (antibody, V domains shown)
VH: B1 VH with S33G, H106A
VL: B1 VL with L30S, T31S, L47V, A51V
B39: 373_C03 (antibody, V domains shown)
VH: B1 VH with D30S, S55G, T58K, H106A
VL: B1 VL with L30V, L47V, E93D
B40: 371_H06 (antibody, V domains shown)
VH: B1 VH with S33G, S55G, H106A
VL: B1 VL with L30S, T31S, L47V, A51V, E93D, S94L
B41: 371_C01 (antibody, V domains shown)
VH: B1 VH with D30S, S33G, N35H, G50S, S55G, S59G
VL: B1 VL with L30V, T31S, A55H, E93D, S94N
B42: 373_A05 (antibody, V domains shown)
VH: B1 VH with D30S, S31D, T58K
VL: B1 VL with T31S, L33V, L47V, A55H
B43: 371_A10 (antibody, V domains shown)
VH: B1 VH with S31D, S55G, T58K, S59G, H106A
VL: B1 VL with L30V, T31S, L47V, S94N
B44: 371_B12 (antibody, V domains shown)
VH: B1 VH with D30S, S31D, S49A, H106A
VL: B1 VL with L30V, L47V, A55H, E93N, S94N
B45: 371_G11 (antibody, V domains shown)
VH: B1 VH with D30S, S33G, G50N, H106A
VL: B1 VL with T31S, L33V, R54L, E93D

For this assay, the target named is human Fc (human). The experiment in a line: ELISA, negative control.
B1: the optical density amounted to 0.386 OD.

The molecule B2 gave an optical density of 0.544 OD.

On to B3, for which the optical density is 0.189 OD.

As for B4, the optical density worked out at 0.292 OD.

B5 returned an optical density of 0.385 OD.

B6 showed an optical density of 0.295 OD.

B7 showed an optical density of 0.318 OD.

B8: the optical density came out at 0.439 OD.

B9 had an optical density of 0.18 OD.

The molecule B10 had an optical density of 0.358 OD.

Molecule B11 gave an optical density of 0.276 OD.

B12 returned an optical density of 0.315 OD.

In the case of B13, the optical density is 0.319 OD.

Consider B14, for which the optical density worked out at 0.331 OD.

In turn, B15 displayed an optical density of 0.341 OD.

With B16, the optical density is 0.321 OD.

B17 returned an optical density of 0.371 OD.

Regarding B18, the optical density was determined as 0.179 OD.

B19: the optical density is 0.337 OD.

In turn, B20 displayed an optical density of 0.388 OD.

In turn, B21 displayed an optical density of 0.403 OD.

Regarding B22, the optical density amounted to 0.248 OD.

In turn, B23 yielded an optical density of 0.33 OD.

For B24, the optical density was 0.184 OD.

Molecule B25 showed an optical density of 0.409 OD.

In turn, B26 came in with an optical density of 0.265 OD.

B27 gave an optical density of 0.309 OD.

Take B28: the optical density was determined as 0.177 OD.

Regarding B29, the optical density amounted to 0.325 OD.

Consider B30, for which the optical density came out at 0.206 OD.

Molecule B31 registered an optical density of 0.367 OD.

For B32, the optical density is 0.269 OD.

In the case of B33, the optical density is 0.304 OD.

Molecule B34 displayed an optical density of 0.514 OD.

As to B35, the optical density came out at 0.35 OD.

B36 registered an optical density of 0.208 OD.

On to B37, for which the optical density was 0.184 OD.

For the molecule B38, the optical density is 0.299 OD.

Turning to B39, the optical density was determined as 0.171 OD.

Regarding B40, the optical density amounted to 0.346 OD.

Regarding B41, the optical density worked out at 0.402 OD.

Regarding B42, the optical density was 0.172 OD.

Turning to B43, the optical density turned out to be 0.338 OD.

As to B44, the optical density came to 0.378 OD.

The molecule B45 had an optical density of 0.399 OD.
